Values belong to the substance of their own block, whether it stands above or below them.
Experiments:
[1] = biological target: H3K14ac peptide (Saccharomyces cerevisiae) (UniProt P61830); conditions: cited from earlier work
Sth1BD (S. cerevisiae) = Sth1BD (S. cerevisiae) (UniProt P32597); assay: ITC; MicroCal ITC200, 20 °C, 25 mM Tris-HCl pH 8.0, 150 mM NaCl; peptides at 2.0 mM in the syringe titrated into reader domain at 0.1-0.2 mM in the cell; one-binding-site model
[2] = biological target: H3K9cr peptide (Saccharomyces cerevisiae) (UniProt P61830); conditions: cited from earlier work
[3] = biological target: H3K9ac peptide (Saccharomyces cerevisiae) (UniProt P61830); conditions: cited from earlier work

Chain of Taf14 YEATS (P35189 1-137): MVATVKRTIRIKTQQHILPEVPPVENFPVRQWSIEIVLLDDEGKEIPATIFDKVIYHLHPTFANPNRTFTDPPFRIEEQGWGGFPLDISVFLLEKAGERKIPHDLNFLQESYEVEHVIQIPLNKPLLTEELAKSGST
Chain of Sth1BD (S. cerevisiae) (P32597 1248-1359): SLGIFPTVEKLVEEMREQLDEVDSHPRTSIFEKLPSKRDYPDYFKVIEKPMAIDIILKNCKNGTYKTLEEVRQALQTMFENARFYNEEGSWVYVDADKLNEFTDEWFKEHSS
Chain of Sth1 Bromodomain (P32597 1254-1359): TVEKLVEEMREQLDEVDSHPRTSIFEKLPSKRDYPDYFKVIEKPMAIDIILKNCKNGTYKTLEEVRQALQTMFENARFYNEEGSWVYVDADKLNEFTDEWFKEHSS

Substance: Sth1 Bromodomain (from UniProt P32597)
Kd [1]: 16 µM

Kd (Sth1BD (S. cerevisiae)): 89 µM
Substance: H3K14bz peptide

Substance: Taf14 YEATS (from UniProt P35189)
Kd [2]: 75 µM | Kd [3]: 334 µM
